Assay results taken from patent publication US10005829B2, “Synthetic linear apelin mimetics for the treatment of heart failure” (priority 2012, dated 2018).
Where a SMILES comes first, the peptide text is derived from it. [ ]: non-standard residue; d: D form. The star is where a group is joined. Pro(trans-4-Ph) = O=C(O)[C@@H]1C[C@@H](c2ccccc2)CN1; Cha = N[C@@H](CC1CCCCC1)C(=O)O; pGlu = O=C1CC[C@@H](C(=O)O)N1; dNle = CCCC[C@@H](N)C(=O)O; dNva = CCC[C@@H](N)C(=O)O; Bn = c1ccc(C*)cc1

T1: APJ receptor (human, UniProt P35414 1-380)
T1 sequence (looked up): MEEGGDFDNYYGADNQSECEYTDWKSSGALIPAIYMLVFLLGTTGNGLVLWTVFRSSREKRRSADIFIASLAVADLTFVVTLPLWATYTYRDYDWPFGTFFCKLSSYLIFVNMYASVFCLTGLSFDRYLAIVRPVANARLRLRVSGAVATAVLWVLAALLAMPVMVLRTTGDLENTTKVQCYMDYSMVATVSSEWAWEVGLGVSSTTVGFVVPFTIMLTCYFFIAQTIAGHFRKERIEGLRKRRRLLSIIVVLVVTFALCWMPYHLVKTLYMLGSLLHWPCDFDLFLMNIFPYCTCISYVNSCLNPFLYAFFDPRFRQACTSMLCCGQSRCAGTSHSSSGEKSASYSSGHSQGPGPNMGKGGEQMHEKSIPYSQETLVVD


System: not listed separately
Assay: Surrogate activity-based plasma stability assay
Format: in vitro ADME
Details: 5% rat plasma, 37° C., EC50 at t0 and t24 hrs; Table 2
Protocol: • Stability assay: stability half-life, (t ½), values were determined by converting peak areas at each time point to percent remaining relative to initial (t=0) peak area. Percent remaining=100×(sample peak area)÷(t=0 peak area) • The natural log of percent remaining values were calculated and plotted against sample time (Microsoft Excel). The slope of this line, k, was determined by linear regression (Microsoft Excel). • Stability half-life was then calculated by the formula, t ½=0.693÷k Surrogate Activity-based Plasma Stability Assay:
The calcium flux protocol described above was followed, with the following changes. The peptides were also incubated with 5% rat plasma (Bioreclamation # [sequence]-M, Na Heparin-treated). Readings were taken at time points t0 and t24 hrs, after incubation in a 37° C. tissue culture incubator. Peptide plasma half-life in minutes was estimated by calculating the following:

Molecule	Surrogate activity-based Plasma stability t½ [h]
CCCC[C@@H](NC(=O)[C@@H]1CCCN1C(=O)CNC(=O)[C@H](CCCCN)NC(=O)[C@H](Cc1c[nH]cn1)NC(=O)[C@@H](C)NC(=O)[C@H](Cc1ccc(OCc2ccccc2)cc1)NC(=O)[C@H](CCCNC(=N)N)NC(=O)[C@@H]1CCCN1C(=O)[C@H](CCCNC(=N)N)NC(=O)[C@@H]1CCC(=O)N1)C(=O)N[C@H](C)C(=O)N[C@H](Cc1ccccc1)C(=O)O [Example 27, pE-R-P-R-Y(Bzl)-a-H-K-G-P-nle-a-f-OH] ([pGlu]RPRY(Bn)[dA]HKGP[dNle][dA][dF]-OH)	5.815

Molecular target: T1, APJ receptor
Assay: cell-based or functional assay
Details: not given

Molecule	hAPJ Ca^2+ Flux EC50 [nM]
[pGlu]RPRL[dNva]HKGP[dNle][dA][dF]-OH (SMILES CCCC[C@@H](NC(=O)[C@@H]1CCCN1C(=O)CNC(=O)[C@H](CCCCN)NC(=O)[C@H](Cc1c[nH]cn1)NC(=O)[C@@H](CCC)NC(=O)[C@H](CC(C)C)NC(=O)[C@H](CCCNC(=N)N)NC(=O)[C@@H]1CCCN1C(=O)[C@H](CCCNC(=N)N)NC(=O)[C@@H]1CCC(=O)N1)C(=O)N[C@H](C)C(=O)N[C@H](Cc1ccccc1)C(=O)O) [pE-R-P-R-L-nva-H-K-G-P-nle-a-f-OH]	19.5
[pGlu]R[Pro(trans-4-Ph)]RL[dA]HKGP[dNle][dA][dF]-OH [pE-R-(trans-4-PhP)-R-L-a-H-K-G-P-nle-a-f-OH]	9.9
H-RPRL[dA]HKGP[dNle][dF]-OH (SMILES CCCC[C@@H](NC(=O)[C@@H]1CCCN1C(=O)CNC(=O)[C@H](CCCCN)NC(=O)[C@H](Cc1c[nH]cn1)NC(=O)[C@@H](C)NC(=O)[C@H](CC(C)C)NC(=O)[C@H](CCCNC(=N)N)NC(=O)[C@@H]1CCCN1C(=O)[C@@H](N)CCCNC(=N)N)C(=O)N[C@H](Cc1ccccc1)C(=O)O) [H-R-P-R-L-a-H-K-G-P-nle-f-OH]	1.4
[pGlu]RPRL[dA]HEGP[dNle][dA][dF]-OH (SMILES CCCC[C@@H](NC(=O)[C@@H]1CCCN1C(=O)CNC(=O)[C@H](CCC(=O)O)NC(=O)[C@H](Cc1c[nH]cn1)NC(=O)[C@@H](C)NC(=O)[C@H](CC(C)C)NC(=O)[C@H](CCCNC(=N)N)NC(=O)[C@@H]1CCCN1C(=O)[C@H](CCCNC(=N)N)NC(=O)[C@@H]1CCC(=O)N1)C(=O)N[C@H](C)C(=O)N[C@H](Cc1ccccc1)C(=O)O) [pE-R-P-R-L-a-H-E-G-P-nle-a-f-OH]	200
[pGlu]RPRLS[dF]KGP[dNle][dA][dF]-OH (SMILES CCCC[C@@H](NC(=O)[C@@H]1CCCN1C(=O)CNC(=O)[C@H](CCCCN)NC(=O)[C@@H](Cc1ccccc1)NC(=O)[C@H](CO)NC(=O)[C@H](CC(C)C)NC(=O)[C@H](CCCNC(=N)N)NC(=O)[C@@H]1CCCN1C(=O)[C@H](CCCNC(=N)N)NC(=O)[C@@H]1CCC(=O)N1)C(=O)N[C@H](C)C(=O)N[C@H](Cc1ccccc1)C(=O)O) [pE-R-P-R-L-S-f-K-G-P-nle-a-f-OH]	72.8
[pGlu]RPR[Cha][dNva]HKGP[dNle][dA][dF]-OH (SMILES CCCC[C@@H](NC(=O)[C@@H]1CCCN1C(=O)CNC(=O)[C@H](CCCCN)NC(=O)[C@H](Cc1c[nH]cn1)NC(=O)[C@@H](CCC)NC(=O)[C@H](CC1CCCCC1)NC(=O)[C@H](CCCNC(=N)N)NC(=O)[C@@H]1CCCN1C(=O)[C@H](CCCNC(=N)N)NC(=O)[C@@H]1CCC(=O)N1)C(=O)N[C@H](C)C(=O)N[C@H](Cc1ccccc1)C(=O)O) [pE-R-P-R-Cha-nva-H-K-G-P-nle-a-f-OH]	9.4
[pGlu]RPRL[dA]HQGP[dNle][dA][dF]-OH (SMILES CCCC[C@@H](NC(=O)[C@@H]1CCCN1C(=O)CNC(=O)[C@H](CCC(N)=O)NC(=O)[C@H](Cc1c[nH]cn1)NC(=O)[C@@H](C)NC(=O)[C@H](CC(C)C)NC(=O)[C@H](CCCNC(=N)N)NC(=O)[C@@H]1CCCN1C(=O)[C@H](CCCNC(=N)N)NC(=O)[C@@H]1CCC(=O)N1)C(=O)N[C@H](C)C(=O)N[C@H](Cc1ccccc1)C(=O)O) [pE-R-P-R-L-a-H-Q-G-P-nle-a-f-OH]	7.4
ERPRLAHKGPLF (pE at 1; D-Ala at 6; D-Nle at 11; D-Phe at 12) [pE-R-P-R-L-a-H-K-G-P-nle-f-OH]	3.1
[pGlu]RPRLS[dA]KGP[dNle][dA][dF]-OH (SMILES CCCC[C@@H](NC(=O)[C@@H]1CCCN1C(=O)CNC(=O)[C@H](CCCCN)NC(=O)[C@@H](C)NC(=O)[C@H](CO)NC(=O)[C@H](CC(C)C)NC(=O)[C@H](CCCNC(=N)N)NC(=O)[C@@H]1CCCN1C(=O)[C@H](CCCNC(=N)N)NC(=O)[C@@H]1CCC(=O)N1)C(=O)N[C@H](C)C(=O)N[C@H](Cc1ccccc1)C(=O)O) [pE-R-P-R-L-S-a-K-G-P-nle-a-f-OH]	8.5
[pGlu]RPRL[dCys(tBu)]HKGP[dNle][dA][dF]-OH [pE-R-P-R-L-c(tBu)-H-K-G-P-nle-a-f-OH]	693
[pGlu]RPRL[dA]HKGP[dF][dA][dF]-OH (SMILES CC(C)C[C@H](NC(=O)[C@H](CCCNC(=N)N)NC(=O)[C@@H]1CCCN1C(=O)[C@H](CCCNC(=N)N)NC(=O)[C@@H]1CCC(=O)N1)C(=O)N[C@H](C)C(=O)N[C@@H](Cc1c[nH]cn1)C(=O)N[C@@H](CCCCN)C(=O)NCC(=O)N1CCC[C@H]1C(=O)N[C@H](Cc1ccccc1)C(=O)N[C@H](C)C(=O)N[C@H](Cc1ccccc1)C(=O)O) [pE-R-P-R-L-a-H-K-G-P-f-a-f-OH]	1.5
[pGlu]RPRL[dV]HKGP[dNle][dA][dF]-OH (SMILES CCCC[C@@H](NC(=O)[C@@H]1CCCN1C(=O)CNC(=O)[C@H](CCCCN)NC(=O)[C@H](Cc1c[nH]cn1)NC(=O)[C@H](NC(=O)[C@H](CC(C)C)NC(=O)[C@H](CCCNC(=N)N)NC(=O)[C@@H]1CCCN1C(=O)[C@H](CCCNC(=N)N)NC(=O)[C@@H]1CCC(=O)N1)C(C)C)C(=O)N[C@H](C)C(=O)N[C@H](Cc1ccccc1)C(=O)O) [pE-R-P-R-L-v-H-K-G-P-nle-a-f-OH]	7.9

Now from value to molecule:

hAPJ Ca^2+ Flux EC50 [nM]	Molecule
8.7	[pGlu]RPRL[dA]HKGP[dNva][dA][dF]-OH (SMILES CCC[C@@H](NC(=O)[C@@H]1CCCN1C(=O)CNC(=O)[C@H](CCCCN)NC(=O)[C@H](Cc1c[nH]cn1)NC(=O)[C@@H](C)NC(=O)[C@H](CC(C)C)NC(=O)[C@H](CCCNC(=N)N)NC(=O)[C@@H]1CCCN1C(=O)[C@H](CCCNC(=N)N)NC(=O)[C@@H]1CCC(=O)N1)C(=O)N[C@H](C)C(=O)N[C@H](Cc1ccccc1)C(=O)O) [pE-R-P-R-L-a-H-K-G-P-nva-a-f-OH]
95.9	[pGlu]RPRL[dA]HKDP[dNle][dA][dF]-OH (SMILES CCCC[C@@H](NC(=O)[C@@H]1CCCN1C(=O)[C@H](CC(=O)O)NC(=O)[C@H](CCCCN)NC(=O)[C@H](Cc1c[nH]cn1)NC(=O)[C@@H](C)NC(=O)[C@H](CC(C)C)NC(=O)[C@H](CCCNC(=N)N)NC(=O)[C@@H]1CCCN1C(=O)[C@H](CCCNC(=N)N)NC(=O)[C@@H]1CCC(=O)N1)C(=O)N[C@H](C)C(=O)N[C@H](Cc1ccccc1)C(=O)O) [pE-R-P-R-L-a-H-K-D-P-nle-a-f-OH]
55.1	[pGlu]RPRLA[dH]KGP[dNle][dA][dF]-OH [pE-R-P-R-L-A-h-K-G-P-nle-a-f-OH]
6.8	[pGlu]RPRLS[dH]KGP[dNle][dA][dF]-OH (SMILES CCCC[C@@H](NC(=O)[C@@H]1CCCN1C(=O)CNC(=O)[C@H](CCCCN)NC(=O)[C@@H](Cc1c[nH]cn1)NC(=O)[C@H](CO)NC(=O)[C@H](CC(C)C)NC(=O)[C@H](CCCNC(=N)N)NC(=O)[C@@H]1CCCN1C(=O)[C@H](CCCNC(=N)N)NC(=O)[C@@H]1CCC(=O)N1)C(=O)N[C@H](C)C(=O)N[C@H](Cc1ccccc1)C(=O)O) [pE-R-P-R-L-S-h-K-G-P-nle-a-f-OH]
7.7	[pGlu]RPRL[dD]HKGP[dNle][dA][dF]-OH (SMILES CCCC[C@@H](NC(=O)[C@@H]1CCCN1C(=O)CNC(=O)[C@H](CCCCN)NC(=O)[C@H](Cc1c[nH]cn1)NC(=O)[C@@H](CC(=O)O)NC(=O)[C@H](CC(C)C)NC(=O)[C@H](CCCNC(=N)N)NC(=O)[C@@H]1CCCN1C(=O)[C@H](CCCNC(=N)N)NC(=O)[C@@H]1CCC(=O)N1)C(=O)N[C@H](C)C(=O)N[C@H](Cc1ccccc1)C(=O)O) [pE-R-P-R-L-d-H-K-G-P-nle-a-f-OH]
0.9	[pGlu]RPRL[dA]HKGP[dNle][dNva][dF]-OH (SMILES CCCC[C@@H](NC(=O)[C@@H]1CCCN1C(=O)CNC(=O)[C@H](CCCCN)NC(=O)[C@H](Cc1c[nH]cn1)NC(=O)[C@@H](C)NC(=O)[C@H](CC(C)C)NC(=O)[C@H](CCCNC(=N)N)NC(=O)[C@@H]1CCCN1C(=O)[C@H](CCCNC(=N)N)NC(=O)[C@@H]1CCC(=O)N1)C(=O)N[C@H](CCC)C(=O)N[C@H](Cc1ccccc1)C(=O)O) [pE-R-P-R-L-a-H-K-G-P-nle-nva-f-OH]
